Measurements published in the supplement of paper PMC10567573.

B1: PCDHGA10 (parent)
chain: FHELQMQVTASDSGDPPLSSNVSL
B2: PPFIA4 (parent)
chain: PGVHRRYSALREESAKDWETSPLP

Variants of: B1
Experiment: protein stability index of a GFP-peptide fusion (GPS, HEK-293T) (PSI 1-6); higher = more stable
Conditions: c terminus: a fixed tail appended
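Also: lentivirally expressed fusions sorted by FACS into six bins by GFP to DsRed ratio, PSI derived from sequencing read proportions per bin multiplied by bin number.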

In order of falling protein stability index:
1. F1D  4.91
2. F1G  4.74
3. F1K  4.51
4. H2S  3.83
5. M6E  3.77
6. F1I  3.74
7. L4Q  3.36
8. V22E  3.24
9. L24N  2.96
10. Q5N  2.86
11. L24C  2.84
12. V22T  2.83
13. L4K  2.73
14. V8H  2.7
15. P16E  2.54
16. G14H  2.54
17. S20N  2.47
18. S19W  2.45
19. G14C  2.44
20. S19Q  2.36
21. V22M  2.34
22. P17A  2.29
23. Q5P  2.23
24. L4W  2.2
25. P16R  2.19
26. S23H  2.14
27. S11G  2.13
28. G14W  2.11
29. S23Q  2.1
30. N21H  2.06
31. N21Q  2.05
32. Q7A  2.04
33. S20T  2
34. T9L  1.99
35. A10F  1.97
36. S19Y  1.94
37. Q5M  1.91
38. D15M  1.91
39. Q7L  1.89
40. D12Q  1.89
41. S19L  1.85
42. P16C  1.85
43. Q5I  1.82
44. D12R  1.82
45. D12L  1.73
46. P16F  1.6

Variants of: B2
Experiment: as above
Conditions: c terminus: a fixed tail appended

In order of falling protein stability index:
1. W18D  5.58
2. W18C  5.36
3. R11E  5.29
4. Y7E  5.25
5. W18E  5.15
6. R5D  5.06
7. V3M  5.03
8. S14K  5
9. S8D  4.97
10. L10D  4.97
11. L10P  4.97
12. L10T  4.97
13. W18A  4.95
14. S14D  4.92
15. A15D  4.92
16. Y7Q  4.9
17. V3D  4.89
18. R6E  4.88
19. R11T  4.88
20. R5A  4.86
21. S8Q  4.86
22. V3G  4.84
23. R11D  4.82
24. H4Y  4.81
25. Y7A  4.8
26. L10N  4.79
27. R5M  4.71
28. V3T  4.7
29. R6D  4.7
30. S14N  4.69
31. S14E  4.69
32. L10K  4.69
33. G2T  4.67
34. K16N  4.66
35. R6K  4.65
36. R11Q  4.65
37. S8K  4.64
38. A15T  4.63
39. E12G  4.62
40. Y7G  4.62
41. V3P  4.6
42. R5Q  4.6
43. Y7R  4.6
44. A15K  4.59
45. R5S  4.58
46. R11N  4.58
47. Y7K  4.58
48. Y7S  4.58
49. Y7M  4.56
50. R11S  4.55
51. R5P  4.54
52. H4E  4.53
53. L10S  4.53
54. H4N  4.52
55. A15E  4.52
56. K16E  4.51
57. G2I  4.51
58. K16T  4.5
59. G2N  4.5
60. Y7N  4.5
61. H4M  4.49
62. R6A  4.49
63. Y7V  4.49
64. R6N  4.48
65. L10H  4.48
66. K16D  4.45
67. V3N  4.45
68. R11M  4.45
69. V3H  4.44
70. G2Q  4.43
71. V3Q  4.42
72. P1K  4.41
73. G2D  4.4
74. A9N  4.4
75. W18F  4.4
76. A15H  4.39
77. Y7H  4.39
78. Y7D  4.38
79. H4D  4.37
80. R11C  4.37
81. G2W  4.36
82. H4T  4.36
83. P1H  4.36
84. R11K  4.36
85. R6T  4.35
86. S8E  4.35
87. R5K  4.34
88. S8N  4.34
89. Y7I  4.34
90. V3R  4.33
91. V3E  4.33
92. H4P  4.33
93. R6Q  4.31
94. L10M  4.31
95. L10W  4.31
96. R11A  4.31
97. L10F  4.29
98. G2S  4.28
99. S8P  4.28
100. A9L  4.27
101. R5H  4.27
102. Y7T  4.27
103. L10V  4.26
104. H4A  4.25
105. K16M  4.24
106. Y7P  4.24
107. E12N  4.23
108. S8G  4.23
109. A9S  4.22
110. R11V  4.21
111. K16V  4.2
112. Y7W  4.2
113. S14H  4.19
114. A9T  4.19
115. R11P  4.19
116. P1Q  4.18
117. Y7L  4.18
118. K16H  4.17
119. P1Y  4.17
120. G2V  4.16
121. P1T  4.16
122. P1I  4.16
123. D17S  4.16
124. L10I  4.15
125. H4I  4.14
126. K16S  4.13
127. Y7F  4.13
128. S14G  4.12
129. A15P  4.12
130. A15L  4.12
131. A9V  4.12
132. G2R  4.11
133. G2Y  4.08
134. V3C  4.08
135. A15G  4.07
136. S8R  4.07
137. E13V  4.06
138. K16L  4.05
139. E12D  4.05
140. S14I  4.05
141. E13Q  4.04
142. A9K  4.03
143. P1G  4.03
144. K16C  4.02
145. V3F  4.02
146. E12T  4.02
147. L10Y  4.02
148. A15R  4
149. R6S  4
150. K16R  3.99
151. R5L  3.99
152. R5F  3.99
153. G2K  3.98
154. R6G  3.98
155. D17N  3.98
156. K16I  3.96
157. E12K  3.96
158. R5G  3.96
159. E13S  3.96
160. E12A  3.94
161. S14L  3.93
162. P1D  3.93
163. E13G  3.93
164. S14V  3.92
165. A15N  3.92
166. A9E  3.92
167. A9H  3.92
168. R11I  3.92
169. R6P  3.91
170. R5T  3.91
171. D17G  3.9
172. K16P  3.89
173. V3S  3.89
174. A15V  3.89
175. E12P  3.88
176. P1N  3.88
177. S14P  3.87
178. A9G  3.87
179. Y7C  3.87
180. A15W  3.86
181. A9M  3.86
182. D17V  3.86
183. R11L  3.86
184. G2A  3.85
185. E12H  3.85
186. R6M  3.82
187. R5W  3.81
188. H4V  3.8
189. E13F  3.8
190. S8Y  3.79
191. R11Y  3.79
192. H4L  3.77
193. A15S  3.76
194. S8H  3.76
195. E13A  3.75
196. R6F  3.74
197. P1V  3.74
198. E13D  3.74
199. R6C  3.72
200. K16A  3.7
201. L10A  3.69
202. E13K  3.69
203. E12S  3.68
204. E12Q  3.68
205. K16Q  3.67
206. A9C  3.67
207. R5V  3.67
208. S8V  3.67
209. R11H  3.67
210. V3L  3.66
211. R5Y  3.66
212. R6H  3.65
213. S14F  3.63
214. S14Q  3.63
215. A15C  3.63
216. A15Q  3.63
217. P1F  3.63
218. L10Q  3.63
219. G2M  3.62
220. R6Y  3.62
221. S8I  3.62
222. R11F  3.59
223. A9W  3.58
224. E12C  3.57
225. E12M  3.56
226. S14T  3.56
227. V3Y  3.55
228. S8L  3.54
229. D17C  3.53
230. A15F  3.52
231. P1M  3.51
232. E13T  3.51
233. A9Q  3.5
234. P1A  3.5
235. P1E  3.49
236. E12Y  3.48
237. S14Y  3.46
238. E12R  3.45
239. E12L  3.45
240. E13I  3.45
241. G2C  3.42
242. H4R  3.42
243. E13N  3.42
244. S14M  3.41
245. R11G  3.41
246. A9Y  3.4
247. R6I  3.39
248. D17Q  3.39
249. D17K  3.36
250. D17R  3.34
251. E13L  3.34
252. D17I  3.33
253. A15Y  3.32
254. D17T  3.31
255. D17A  3.29
256. E12I  3.21
257. G2H  3.18
258. K16F  3.17
259. S8C  3.16
260. R11W  3.16
261. H4W  3.15
262. E13Y  3.14
263. E12W  3.11
264. P1L  3.11
265. E13P  3.11
266. S8F  3.08
267. S14R  3.07
268. R6L  3.04
269. D17P  3.04
270. E12F  3.02
271. E13M  2.96
272. A9P  2.93
273. A9F  2.91
274. D17L  2.89
275. S8T  2.88
276. S14W  2.81
277. H4C  2.79
278. A15M  2.77
279. D17Y  2.72
280. R6W  2.71
281. R5C  2.68
282. P1C  2.65
283. E13W  2.64
284. E13H  2.63
285. E13C  2.38
286. L10C  2.28
287. S8W  2.08
288. D17W  1.97
